Experimental data published in paper PMC12346409, “Amphiphilic Oligonucleotide Derivatives as a Tool to Study DNA Repair Proteins”.

Assays:
[1] = target: T1, PARP3 (UniProt Q9Y6F1 1-533); experiment: EMSA; 10 nM DNA, up to 10-fold PARP3 excess; EMSA: 50 mM Tris-HCl pH 8.0, 20 mM NaCl, 0.25 mM EDTA, 5% glycerol, 0.025% NP-40, 37 °C 20 min; 8% PAAG, 0.5x TBE, 10 °C; details: protein: recombinant; label: 5'-32P on O1-Pho strand; 5' overhang 5 nt on strand 1 as printed; other end blunt
T1 sequence: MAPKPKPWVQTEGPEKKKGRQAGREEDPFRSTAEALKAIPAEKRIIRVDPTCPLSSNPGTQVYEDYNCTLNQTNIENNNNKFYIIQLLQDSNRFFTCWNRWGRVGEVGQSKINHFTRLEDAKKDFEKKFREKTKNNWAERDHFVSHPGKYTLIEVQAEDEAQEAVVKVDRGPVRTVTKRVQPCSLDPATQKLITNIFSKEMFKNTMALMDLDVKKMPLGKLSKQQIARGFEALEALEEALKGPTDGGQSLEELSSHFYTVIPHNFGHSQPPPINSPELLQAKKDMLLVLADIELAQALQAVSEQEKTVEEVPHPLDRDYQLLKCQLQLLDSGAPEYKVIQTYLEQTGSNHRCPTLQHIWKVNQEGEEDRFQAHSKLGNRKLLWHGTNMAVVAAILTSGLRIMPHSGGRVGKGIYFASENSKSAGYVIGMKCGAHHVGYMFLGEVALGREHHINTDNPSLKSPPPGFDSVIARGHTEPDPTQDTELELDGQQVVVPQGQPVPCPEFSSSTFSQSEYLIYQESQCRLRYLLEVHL

[2] = target: Ku antigen (Ku70/Ku80) (UniProt P12956;P13010 1-609;1-732); experiment: photo-cross-linking; 100 nM DNA, 100 nM protein; Ku70 and Ku80 labelled; EMSA: 50 mM Tris-HCl pH 8.0, 20 mM NaCl, 0.25 mM EDTA, 5% glycerol, 0.025% NP-40, 37 °C 20 min; 8% PAAG, 0.5x TBE, 10 °C; details: copies: 1;1; nicked duplex, blunt ends, strands 1 and 2 paired to strand 3
Chain of Ku antigen (Ku70/Ku80) (P12956 whole entry, chain 1 of 2): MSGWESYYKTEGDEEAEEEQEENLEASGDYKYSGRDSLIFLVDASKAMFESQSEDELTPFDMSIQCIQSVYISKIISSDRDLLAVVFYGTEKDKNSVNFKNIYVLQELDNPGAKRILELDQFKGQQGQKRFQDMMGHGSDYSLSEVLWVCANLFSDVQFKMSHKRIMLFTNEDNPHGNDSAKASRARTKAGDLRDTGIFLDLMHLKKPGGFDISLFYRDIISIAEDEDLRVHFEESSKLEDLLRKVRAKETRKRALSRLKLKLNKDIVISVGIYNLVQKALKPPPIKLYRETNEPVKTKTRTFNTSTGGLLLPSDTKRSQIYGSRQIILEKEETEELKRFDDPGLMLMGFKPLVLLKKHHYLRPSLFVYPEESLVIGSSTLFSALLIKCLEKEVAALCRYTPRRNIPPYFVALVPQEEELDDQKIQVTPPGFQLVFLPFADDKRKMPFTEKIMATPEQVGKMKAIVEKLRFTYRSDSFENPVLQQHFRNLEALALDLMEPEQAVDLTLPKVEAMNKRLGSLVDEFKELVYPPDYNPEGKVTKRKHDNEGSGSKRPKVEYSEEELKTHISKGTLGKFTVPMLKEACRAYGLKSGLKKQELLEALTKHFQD
Chain of Ku antigen (Ku70/Ku80) (P13010 whole entry, chain 2 of 2): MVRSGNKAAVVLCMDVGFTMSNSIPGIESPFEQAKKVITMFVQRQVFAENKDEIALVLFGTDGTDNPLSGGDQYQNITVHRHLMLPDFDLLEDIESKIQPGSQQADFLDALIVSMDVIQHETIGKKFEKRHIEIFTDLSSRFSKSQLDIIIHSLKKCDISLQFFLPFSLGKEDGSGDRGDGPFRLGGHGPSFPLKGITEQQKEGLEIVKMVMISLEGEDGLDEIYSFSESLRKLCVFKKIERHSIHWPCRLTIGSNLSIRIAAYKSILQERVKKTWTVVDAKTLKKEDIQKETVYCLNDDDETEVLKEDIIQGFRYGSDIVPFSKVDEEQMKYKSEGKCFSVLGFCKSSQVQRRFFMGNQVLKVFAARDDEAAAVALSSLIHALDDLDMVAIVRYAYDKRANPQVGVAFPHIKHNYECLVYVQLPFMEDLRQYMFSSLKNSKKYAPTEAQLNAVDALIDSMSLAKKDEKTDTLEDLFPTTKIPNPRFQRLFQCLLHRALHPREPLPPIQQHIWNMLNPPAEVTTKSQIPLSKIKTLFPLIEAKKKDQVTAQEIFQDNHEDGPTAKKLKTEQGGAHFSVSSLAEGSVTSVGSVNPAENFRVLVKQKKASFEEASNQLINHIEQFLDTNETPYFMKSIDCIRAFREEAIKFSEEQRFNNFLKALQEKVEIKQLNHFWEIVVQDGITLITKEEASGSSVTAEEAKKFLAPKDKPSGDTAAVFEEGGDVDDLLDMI

[3] = target: T2, PARP1 (human, UniProt P09874 1-1014); experiment: photo-cross-linking; 100 nM DNA, 100 nM protein; EMSA: 50 mM Tris-HCl pH 8.0, 20 mM NaCl, 0.25 mM EDTA, 5% glycerol, 0.025% NP-40, 37 °C 20 min; 8% PAAG, 0.5x TBE, 10 °C; details: protein: recombinant; nicked duplex, blunt ends, strands 1 and 2 paired to strand 3
T2 sequence (P09874 whole entry): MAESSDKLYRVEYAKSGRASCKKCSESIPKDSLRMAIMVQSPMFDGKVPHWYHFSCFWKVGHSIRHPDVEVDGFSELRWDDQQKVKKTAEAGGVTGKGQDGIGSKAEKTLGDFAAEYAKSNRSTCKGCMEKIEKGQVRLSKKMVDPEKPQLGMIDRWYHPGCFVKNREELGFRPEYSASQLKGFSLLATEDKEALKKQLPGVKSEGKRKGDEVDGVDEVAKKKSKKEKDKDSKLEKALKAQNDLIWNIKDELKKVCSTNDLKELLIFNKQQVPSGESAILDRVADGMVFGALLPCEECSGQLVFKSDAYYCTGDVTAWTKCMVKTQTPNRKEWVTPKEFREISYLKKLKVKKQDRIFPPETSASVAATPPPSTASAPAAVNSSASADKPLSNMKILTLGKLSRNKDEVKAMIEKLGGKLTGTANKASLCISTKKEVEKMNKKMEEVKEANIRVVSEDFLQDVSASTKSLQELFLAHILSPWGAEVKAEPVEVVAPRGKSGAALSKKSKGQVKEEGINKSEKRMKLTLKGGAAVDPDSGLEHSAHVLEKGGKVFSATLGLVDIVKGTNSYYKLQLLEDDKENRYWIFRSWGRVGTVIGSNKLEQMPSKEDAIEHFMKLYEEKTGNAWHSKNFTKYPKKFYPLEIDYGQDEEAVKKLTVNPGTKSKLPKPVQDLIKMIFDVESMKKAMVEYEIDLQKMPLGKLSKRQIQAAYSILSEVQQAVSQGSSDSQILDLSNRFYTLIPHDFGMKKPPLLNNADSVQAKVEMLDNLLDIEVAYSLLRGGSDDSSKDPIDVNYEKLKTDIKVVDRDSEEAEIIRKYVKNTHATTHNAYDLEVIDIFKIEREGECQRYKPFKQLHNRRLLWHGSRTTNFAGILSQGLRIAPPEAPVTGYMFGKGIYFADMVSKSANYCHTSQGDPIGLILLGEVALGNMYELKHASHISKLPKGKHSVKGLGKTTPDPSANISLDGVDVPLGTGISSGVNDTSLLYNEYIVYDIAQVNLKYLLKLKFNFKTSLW

[4] = target: PARP2 (human, UniProt Q9UGN5 1-583); experiment: photo-cross-linking; no NAD+; 200 nM PARP2, 100 nM DNA; EMSA: 50 mM Tris-HCl pH 8.0, 20 mM NaCl, 0.25 mM EDTA, 5% glycerol, 0.025% NP-40, 37 °C 20 min; 8% PAAG, 0.5x TBE, 10 °C; details: protein: recombinant; label: 5'-32P; 5' overhang 4 nt on strand 1; other end blunt
Chain of PARP2 (Q9UGN5 whole entry): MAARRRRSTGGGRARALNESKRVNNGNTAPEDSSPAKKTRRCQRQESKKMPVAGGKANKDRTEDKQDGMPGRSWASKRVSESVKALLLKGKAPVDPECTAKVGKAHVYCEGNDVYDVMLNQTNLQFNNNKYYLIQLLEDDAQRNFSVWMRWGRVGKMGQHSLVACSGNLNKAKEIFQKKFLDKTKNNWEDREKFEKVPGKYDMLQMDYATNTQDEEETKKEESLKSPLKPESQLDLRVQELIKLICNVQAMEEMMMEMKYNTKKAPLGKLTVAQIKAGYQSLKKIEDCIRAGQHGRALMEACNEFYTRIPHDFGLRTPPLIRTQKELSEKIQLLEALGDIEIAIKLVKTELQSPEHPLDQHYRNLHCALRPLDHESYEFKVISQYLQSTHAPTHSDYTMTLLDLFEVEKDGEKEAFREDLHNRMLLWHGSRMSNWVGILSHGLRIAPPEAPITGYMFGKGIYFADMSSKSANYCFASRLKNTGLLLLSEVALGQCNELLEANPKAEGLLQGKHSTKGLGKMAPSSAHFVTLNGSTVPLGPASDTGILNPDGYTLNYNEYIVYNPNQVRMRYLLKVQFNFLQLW

[5] = target: T2, PARP1; experiment: photo-cross-linking; no NAD+; 200 nM PARP1, 100 nM DNA; EMSA: 50 mM Tris-HCl pH 8.0, 20 mM NaCl, 0.25 mM EDTA, 5% glycerol, 0.025% NP-40, 37 °C 20 min; 8% PAAG, 0.5x TBE, 10 °C; details: protein: recombinant; label: 5'-32P; 5' overhang 4 nt on strand 1; other end blunt

B1: DNA-R (EMSA, O-R/O1-Pho) (dsDNA)
DNA 1: TCCTGACATACTTGATACTTAGACATTCTT
DNA 2: AAGAATGTCTAAGTATCAAGTATGT
binding result [1]: no binding

B2: Pho-dRP (dsDNA)
DNA 1: GGCGACTAAGCCGGGC
DNA 2: AACGCCAGGGCCTCCC
DNA 3: GGGAGGCCCTGGCGTTGCCCGGCTTAGTCGCC
modifications: 3'-terminal FAP-dCMP on strand 1; 5'-dRP on strand 2
binding result [2]: binds | binding result [3]: binds

B3: Pho-DNA-R (dsDNA)
DNA 1: B1 DNA 1
DNA 2: AAGAATGTCTAAGTATCAAGTATGTC
modifications: 3'-terminal FAP-dCMP (photoactivatable C) on strand 2
binding result [4]: binds | binding result [5]: binds
